Assay results published in patent publication US8236761B2, “C-Met receptor regulation by angiotensin IV (AT4) receptor ligands” (Washington State University Research Foundation, priority 2006, dated 2012).
Non-standard residues stand in square brackets, D forms with d. No end group written: not given here. Nle = CCCC[C@H](N)C(=O)O

Tests used:
MDCK cells = assay: c-Met/HGF stimulated MDCK cell proliferation (MTT); format: cell-based, canine; details: HGF 10 ng/ml, COMPOUND 2 10^−6M to 10^−14M, four days
Description: Thereafter, 10 ng/ml of HGF alone and with the indicated concentrations of Norleual in a 1% FBS DMEM were added to the cells. The cells were cultured under these conditions for four days. On the fourth day, the treatment media was aspirated and replaced with 5 mg/ml of MTT reagent in 0.1 M glycine buffer (Invitrogen). The MTT reagent was incubated with the cells for four hours at 37° C. before adding DMSO to solubilize the cells and record the MTT absorbance on a plate reader. The controls were treated as background and subtracted from all of the treatments to determine the increase in proliferation due solely to HGF treatment. Differences between the treatments were determined using one-way ANOVA with Bonferroni's post-hoc analysis (Prism statistical analysis software). * indicate p<0.05 vs. HGF treatment. N=6, mean+/−SEM. […] Madin-Darby Canine Kidney (MDCK) cells were plated in the wells of a 96 well plate in 100 μl of complete Dulbecco's Modified Eagle's Medium (DMEM). The cells were serum starved for 24 hours to induce quiescence. […] Absorbance of the cleaved substrate was quantitated on a Biotek Synergy HT 2 plate reader according to the manufacturer's instructions. […] The data was analyzed with Prism® (GraphPad, San Diego, Calif.) statistical analysis software. * indicates p<0.01 vs. HGF treatment by Tukey's post-hoc analysis. […]

c-Met = c-Met (Homo sapiens, UniProt P08581); assay: Immunoprecipitation/Western blot of HGF-dependent c-Met and Gab1 phosphorylation and association in HEK293 cells; format: cell-based; set-up: host or cells: HEK293
Description: (FIG. 5A) HEK293 cells were treated for 10 minutes with HGF at indicated concentrations. Lysates were immunoprecipitated (IP) with anti-c-Met antibody (DO-24) and immunoblotted (IB) with anti-c-Met or anti-phospho-tyrosine (06-427) antibody. (FIG. 5B) HEK293 cells were treated for 10 minutes with HGF and/or Norleual. Lysates were IP with anti-c-Met (DO-24) and IB with anti-c-Met (DQ-13) or anti-phospho-tyrosine (HAM 1676). (FIG. 5C) HEK293 lysates were IP with anti-c-Met (DO-24) and IB with anti-Gab1. (FIG. 5D) HEK 293 lysates were IP with anti-Gab1 and IB with anti-Gab1 or anti-phospho-tyrosine (HAM 1676). (FIGS. 5E, 5F, 5G) Relative amounts (normalized to % total c-Met in IP) of quantified IP/IB band intensities for control, 110 pM HGF-, 110 pM HGF and 20 pM Norleual-, and 20 pM Norleual-treated HEK293 cells for phospho-c-Met (FIG. 5E, n=4), phospho-Gab1 (FIG. 5F, n=4), and c-Met associated Gab1 (FIG. 5G, n=3). Error bars indicate ±SD.
HEK293 cells were treated for 10 minutes with HGF and/or Norleual at the indicated concentrations. Lysates were IP with anti-c-Met (DO-24, Millipore/Upstate, Billerica, Mass.) and IB with anti-c-Met (DQ-13, Millipore/Upstate) or anti-phosphotyrosine (HAM1676, lot JLB03, R&D Systems, Inc., Minneapolis, Minn.).
Immunoprecipitation and Western blotting. Cells were serum starved for two hours in DMEM before treatment. Cells were harvested using RIPA lysis buffer (Upstate Biotechnol. Inc., Lake Placid, N.Y.) with phosphatase inhibitor cocktails 1 and 2 (Sigma, St Louis, Mo., USA). Protein concentration was determined using the BCA assay (Pierce, Rockford, Ill., USA). Lysates were incubated with antibody overnight at 4° C. Immunoprecipitation controls received mouse non-specific Ig (Upstate). Proteins were captured with protein-A agarose (Upstate) and were washed with PBS. Proteins were resolved using SDS-PAGE electrophoresis (Criterion, BioRad, Hercules, Calif., USA), transferred to nitrocellulose, and incubated with appropriate antibodies. Proteins were visualized using the Supersignal West Pico Chemiluminescent Substrate system (Pierce). The film images were digitized and analyzed using TotalLab® software (AmershamPharmacia/GE HealthCare, Piscataway, N.J.).
Whether the interaction of Norleual with the c-Met receptor had functional consequences regarding c-Met signaling was next investigated by determining whether Norleual could alter the phosphorylation status of cellular protein tyrosine phosphate (FIG. 4) and more specifically, of c-Met (i.e., c-Met activation), and also whether Norleual could modulate Gab1 association with c-Met. Human embryonic kidney HEK293 cells were activated by HGF in the presence or absence of Norleual. Solubilized membranes were immunoprecipitated (IP) with an anti-c-Met antibody and immunoblotted (IB) for total c-Met, anti-phospho-tyrosine to detect the activated form of c-Met, and anti-Gab1 to detect c-Met/Gab1 association. […] To confirm these findings, treated HEK293 lysates were precipitated with anti-Gab1 and blotted for total Gab1 and phospho-Gab1, its activated form. Again, Norleual inhibited HGF-induced Gab1 phosphorylation (FIGS. 5D, […]).

c-Met, sequence (P08581 308-1390 limits assumed): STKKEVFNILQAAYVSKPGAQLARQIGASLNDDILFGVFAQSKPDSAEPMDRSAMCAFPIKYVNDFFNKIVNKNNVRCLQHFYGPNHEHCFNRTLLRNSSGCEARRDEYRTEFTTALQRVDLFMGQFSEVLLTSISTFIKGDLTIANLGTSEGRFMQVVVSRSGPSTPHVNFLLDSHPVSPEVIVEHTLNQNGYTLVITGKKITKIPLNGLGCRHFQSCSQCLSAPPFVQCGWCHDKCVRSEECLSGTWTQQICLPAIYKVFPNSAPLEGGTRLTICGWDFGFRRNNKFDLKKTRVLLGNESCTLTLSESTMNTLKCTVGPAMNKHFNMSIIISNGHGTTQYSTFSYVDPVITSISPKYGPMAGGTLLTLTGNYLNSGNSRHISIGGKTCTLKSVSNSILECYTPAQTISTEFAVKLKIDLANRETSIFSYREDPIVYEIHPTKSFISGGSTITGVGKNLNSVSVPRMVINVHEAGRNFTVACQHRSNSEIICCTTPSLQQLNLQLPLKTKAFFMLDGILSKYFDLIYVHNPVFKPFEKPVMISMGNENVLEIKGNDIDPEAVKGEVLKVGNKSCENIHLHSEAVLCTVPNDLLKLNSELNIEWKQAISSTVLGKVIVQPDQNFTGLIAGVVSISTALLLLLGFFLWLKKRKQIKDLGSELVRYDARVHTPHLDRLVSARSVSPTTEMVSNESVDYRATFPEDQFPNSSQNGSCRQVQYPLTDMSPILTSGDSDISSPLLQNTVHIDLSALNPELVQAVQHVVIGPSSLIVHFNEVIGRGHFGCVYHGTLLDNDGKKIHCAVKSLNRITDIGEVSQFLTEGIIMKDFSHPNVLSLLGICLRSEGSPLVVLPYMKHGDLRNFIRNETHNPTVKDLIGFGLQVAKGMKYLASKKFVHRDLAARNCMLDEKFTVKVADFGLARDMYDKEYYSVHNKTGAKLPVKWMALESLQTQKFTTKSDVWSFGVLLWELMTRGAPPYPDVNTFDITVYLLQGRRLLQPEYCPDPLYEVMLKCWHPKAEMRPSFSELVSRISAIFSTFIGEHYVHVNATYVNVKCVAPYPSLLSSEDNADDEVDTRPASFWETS
c-Met, sequence (P08581 25-307 limits assumed): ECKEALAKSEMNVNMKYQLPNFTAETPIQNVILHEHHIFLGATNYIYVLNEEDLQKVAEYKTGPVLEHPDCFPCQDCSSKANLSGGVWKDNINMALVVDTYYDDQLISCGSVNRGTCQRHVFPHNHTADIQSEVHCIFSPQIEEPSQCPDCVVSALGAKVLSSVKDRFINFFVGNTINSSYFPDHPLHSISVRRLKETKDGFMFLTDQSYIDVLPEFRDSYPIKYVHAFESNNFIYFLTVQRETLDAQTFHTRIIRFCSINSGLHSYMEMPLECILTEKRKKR

HGF-initiated association between Gab1 and c-Met (c-Met; HEK293 cells): significantly reduced
c-Met phosphorylation, compound applied alone (c-Met; HEK293 cells, 10 minutes, no HGF): did not alter
HGF-dependent Gab1 phosphorylation (IP anti-c-Met) (c-Met; HEK293 cells, Norleual 20 pM, 110 pM HGF): significantly reduced
HGF-dependent c-Met phosphorylation (c-Met; HEK293 cells, Norleual 20 pM, 110 pM HGF, 10 minutes): significantly reduced
HGF-induced Gab1 phosphorylation (IP anti-Gab1) (c-Met; HEK293 lysates precipitated with anti-Gab1): inhibited
Substance: Nle-Tyr-Leu-ψ-His-Pro-Phe ([Nle]YLHPF; also: reduced peptide bond psi(CH2NH2) between Leu and His) [Norleual]
HGF stimulated MDCK cellular proliferation (MDCK cells): attenuation
HGF stimulated MDCK cellular proliferation (MDCK cells; listed as Compound 2): inhibited
